The values below come from article PMC8575775, “Structural basis of the interaction between SETD2 methyltransferase and hnRNP L paralogs for governing co-transcriptional splicing” (Nature Communications, 2021).

Several values for one entry are separate records, joined by “and”; a condition that tells them apart may be missing. Equal values may be shown once. Ends that are not written are not given here.

The target of experiment [1] is T1, hnRNP L RRM2 (Homo sapiens, UniProt P14866).
T1 construct: made in house; host or cells: Escherichia coli BL21 (DE3)
T1 sequence (P14866 189-286): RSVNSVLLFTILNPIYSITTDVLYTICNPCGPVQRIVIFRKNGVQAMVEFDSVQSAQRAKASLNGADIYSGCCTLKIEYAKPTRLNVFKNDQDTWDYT
In words: ITC of SETD2 peptides with hnRNP L RRM2. It counts as binding. The note with it: ITC 20 °C, N.D. = No detectable interaction under the experiment conditions. On the procedure:
(§1) The hnRNP L_RRM2 fragment (residues189-286) was amplified from the human brain cDNA library and cloned into a modified pET28a (Novagen) vector without a thrombin protease cleavage site (termed p28a). All the mutants were generated using a MutantBEST kit (Takara) and verified via DNA sequencing. All the proteins were expressed in Escherichia coli BL21 (DE3) cells. The cells were cultured at 37 °C in LB medium, until the OD600 reached about 0.8. Then the proteins were induced with 0.2 mM isopropyl β-D-1-thiogalactopyranoside (IPTG). After induction at 16 °C for 24 h, the cells were harvested and lysed by sonication in buffer A (20 mM Tris-HCl, pH 7.8, 1 M NaCl). Proteins were first purified by Ni-NTA agarose beads and further purified by size-exclusion chromatography on a Hiload 16/60 Superdex 75 column (GE Healthcare) in buffer A. Purified proteins were dialyzed with Buffer B (20 mM Tris-HCl pH 7.8, 150 mM NaCl) and concentrated for subsequent analysis.
(§2) Isothermal titration calorimetry (ITC) assays were performed at 20 °C by using a Microcal PEAQ-ITC instrument (Malvern). We conducted the ITC experiments using SETD2 peptides for titration into hnRNP L and hnRNP LL proteins. […] The integrated heat data were analyzed using a one-site binding model by MicroCal PEAQ 1.0.0.1259-ITC Analysis Software provided by the manufacturer.

For experiment [2], the target named is T2, PTB RRM2 (PTB1) (Homo sapiens, UniProt P26599).
T2 construct: made in house; host or cells: Escherichia coli BL21 (DE3)
T2 sequence (P26599 184-260 limits assumed): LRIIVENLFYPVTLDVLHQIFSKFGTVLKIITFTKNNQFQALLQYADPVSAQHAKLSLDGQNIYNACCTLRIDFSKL
The experiment in a line: ITC with PTB RRM2. The class given is binding. The note with it: ITC 20 °C; N.D. = No detectable interaction under the experiment conditions.

Experiment [3] has as its target T3, hnRNP L Y257A (Homo sapiens, UniProt P14866, Y257A).
T3 construct: made in house; host or cells: Escherichia coli BL21 (DE3)
T3 sequence (P14866 189-286 Y257A): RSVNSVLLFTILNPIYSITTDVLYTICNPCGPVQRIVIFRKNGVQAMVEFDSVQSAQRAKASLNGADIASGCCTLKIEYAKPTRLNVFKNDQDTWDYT
In words: ITC with hnRNP L RRM2 Y257A mutant. The class given is binding. The note with it: ITC 20 °C; N.D. = No detectable interaction under the experiment conditions. Here is the method: as §1, §2

Experiment [4] deals with T4, hnRNP L^L263A RRM2 (human, UniProt P14866 189-286, L263A).
T4 construct: heterogeneous nuclear ribonucleoprotein L, human, RRM2 fragment residues 189-286 as Dm1, with L263A; source: E. coli BL21 (DE3), purified (Ni-NTA, size-exclusion chromatography)
T4 sequence (looked up): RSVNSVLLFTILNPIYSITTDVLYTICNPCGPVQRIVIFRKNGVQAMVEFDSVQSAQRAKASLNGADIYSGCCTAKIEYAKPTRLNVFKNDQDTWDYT
In words: ITC; SETD2 peptide (about 600 µM, syringe) titrated into the protein (about 50 µM, sample pool); 20 °C; MicroCal PEAQ-ITC; one-site binding model; three independent titrations. The note with it: both partners purified.

In experiment [5] the target is T5, hnRNP L RRM2 (residues 189-286) (human).
T5 construct: heterogeneous nuclear ribonucleoprotein L, human, RRM2 fragment residues 189-286; also called hnRNP L^WT; source: E. coli BL21 (DE3), purified (Ni-NTA, size-exclusion chromatography)
T5 chain: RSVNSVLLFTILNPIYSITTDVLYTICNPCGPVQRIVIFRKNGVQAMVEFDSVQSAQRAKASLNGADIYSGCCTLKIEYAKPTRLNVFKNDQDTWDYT
Described as above. The note with it: both partners purified.

Experiment [6] deals with T6, hnRNP L^I214A RRM2 (human, UniProt P14866 189-286, I214A).
T6 construct: heterogeneous nuclear ribonucleoprotein L, human, RRM2 fragment residues 189-286 as Dm1, with I214A; source: E. coli BL21 (DE3), purified (Ni-NTA, size-exclusion chromatography)
T6 sequence (looked up): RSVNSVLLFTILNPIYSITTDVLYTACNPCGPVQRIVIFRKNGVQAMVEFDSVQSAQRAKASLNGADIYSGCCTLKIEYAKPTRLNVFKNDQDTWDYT
The experiment is described as above. The note with it: both partners purified.

Experiment [7] addresses T7, hnRNP L^I256A RRM2 (human, UniProt P14866 189-286, I256A).
T7 construct: heterogeneous nuclear ribonucleoprotein L, human, RRM2 fragment residues 189-286 as Dm1, with I256A; source: E. coli BL21 (DE3), purified (Ni-NTA, size-exclusion chromatography)
T7 sequence (looked up): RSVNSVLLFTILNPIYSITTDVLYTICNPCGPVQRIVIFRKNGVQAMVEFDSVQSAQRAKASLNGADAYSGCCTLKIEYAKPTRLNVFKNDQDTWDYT
Described as above. The note with it: both partners purified.

For experiment [8], the target named is T8, hnRNP L^V210A RRM2 (human, UniProt P14866 189-286, V210A).
T8 construct: heterogeneous nuclear ribonucleoprotein L, human, RRM2 fragment residues 189-286 as Dm1, with V210A; source: E. coli BL21 (DE3), purified (Ni-NTA, size-exclusion chromatography)
T8 sequence (looked up): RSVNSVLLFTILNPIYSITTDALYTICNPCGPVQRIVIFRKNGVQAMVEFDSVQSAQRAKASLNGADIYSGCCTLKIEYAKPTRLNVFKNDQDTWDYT
Described as above. The note with it: both partners purified.

The target of experiment [9] is T4, hnRNP L^L263A RRM2. The description is as above. The note with it: both partners purified. This is another data set of the same source.
The target in experiment [10] is T9, hnRNP LL^V188I RRM2 (human, UniProt Q8WVV9 166-268, V188I).
T9 construct: heterogeneous nuclear ribonucleoprotein L-like, human, RRM2 domain as Dm4, with V188I; source: E. coli BL21 (DE3), purified (Ni-NTA, size-exclusion chromatography)
T9 sequence: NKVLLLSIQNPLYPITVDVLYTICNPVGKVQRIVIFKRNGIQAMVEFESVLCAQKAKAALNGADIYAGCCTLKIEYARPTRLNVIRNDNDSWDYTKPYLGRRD
Described as above. The note with it: both partners purified.

Experiment [11] deals with T10, hnRNP LL RRM2 (human, UniProt Q8WVV9 166-268).
T10 construct: heterogeneous nuclear ribonucleoprotein L-like, human, RRM2 domain; also called hnRNP LL^WT; source: E. coli BL21 (DE3), purified (Ni-NTA, size-exclusion chromatography)
T10 sequence: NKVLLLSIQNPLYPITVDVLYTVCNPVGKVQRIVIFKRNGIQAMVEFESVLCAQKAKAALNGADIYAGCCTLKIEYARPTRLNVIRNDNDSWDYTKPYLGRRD
The description is as above. The note with it: both partners purified.

Experiment [12] deals with T11, hnRNP L RRM2 I256A (human, UniProt P14866 189-286, I256A).
T11 construct: hnRNP L, human, RRM2 fragment 189-286 with I256A; source: E. coli BL21 (DE3), purified (Ni-NTA, size-exclusion chromatography)
T11 sequence (looked up): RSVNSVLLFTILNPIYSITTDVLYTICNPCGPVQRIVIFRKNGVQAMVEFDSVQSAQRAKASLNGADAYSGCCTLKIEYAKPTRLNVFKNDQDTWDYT
In words: ITC; SETD2 peptides (about 600 µM, syringe) titrated into hnRNP L / hnRNP LL proteins (about 50 µM, cell); 20 °C; Microcal PEAQ-ITC; one-site binding model; mean of three independent experiments. The note with it: both partners purified.

Experiment [13] deals with T12, hnRNP L RRM2 (residues 189-286) (human, UniProt P14866 189-286).
T12 construct: hnRNP L, human, RRM2 fragment, residues 189-286, amplified from a human brain cDNA library; Cloned into a modified pET28a vector without a thrombin cleavage site (p28a); also called hnRNP L RRM2 WT; source: E. coli BL21 (DE3), purified (Ni-NTA, size-exclusion chromatography)
T12 sequence (looked up): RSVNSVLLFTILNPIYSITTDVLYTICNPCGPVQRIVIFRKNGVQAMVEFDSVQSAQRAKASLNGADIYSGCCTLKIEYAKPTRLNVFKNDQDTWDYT
The description is as above. The note with it: both partners purified.

Experiment [14] has as its target T13, hnRNP LL RRM2 (human, UniProt Q8WVV9 166-268).
T13 construct: hnRNP LL, human, RRM2 domain; The methods describe only the cloning of hnRNP L RRM2; all proteins were expressed in E. coli; source: E. coli BL21 (DE3), purified (Ni-NTA, size-exclusion chromatography)
T13 sequence: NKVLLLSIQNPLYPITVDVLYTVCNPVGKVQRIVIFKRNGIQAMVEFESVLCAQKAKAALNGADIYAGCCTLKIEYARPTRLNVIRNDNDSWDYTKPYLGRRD
The experiment is described as above. The note with it: both partners purified.

For “SETD2^2113–2140: adjacent SETD2 fragment, residues 2113–2140, used as non-binding control in ITC (RNKLSTEERRKLFEQEVAQREAQKQQQQ)”, the “KD / interaction detected by ITC, in words” value was “could not detect any interaction” in experiment [1] and “No Binding” in [1] (listed as SETD2^2113-2140).
As for “YPPGYPMQAYVDPSNPNAGKVLLPTP [SETD2^2167–2192]”, the “KD / interaction detected by ITC, in words” value is given as “no detectable affinity” in [2] and “completely abolished” in experiment [3].
The term stoichiometry N denotes a count of units in the complex or per binding partner. One may read the Kd as the concentration at which binding is half-saturated. For YPPGYPMQAYVDPSNPNAGKVLLPTP (peptide, UniProt Q9BYW2 2167-2192, looked up, source: synthetic peptide) [SETD2^2167-2192 peptide], the “stoichiometry N” value in experiment [4] is 0.97; in [5] it was 0.93 and 0.92; in experiment [6], 1.01 and 1.05 and 1.18; in experiment [7], 1.3 and 1.31 and 1.18; in [8] it was 0.93 and 0.78 and 1.13; in experiment [9], 0.85 and 0.98 and 0.93. Further, the “stoichiometry N” value in [10] was 1.1 and 0.96 and 1.12; in [11] it was 0.95 and 1.04. In addition, the Kd in experiment [5] was 5.83 µM and 5.91 µM; in experiment [6], 15.6 µM and 16.3 µM and 16.2 µM and 16 µM; in [7], 34.8 µM and 35.8 µM and 35 µM and 35.2 µM; in experiment [8], 9.1 µM and 8.9 µM and 9.33 µM and 9.11 µM; in [9] it was 14.4 µM and 13.6 µM and 13.2 µM and 13.7 µM; in experiment [10], 6.16 µM and 6.44 µM and 6.3 µM. Further, the Kd in [11] is 8.58 µM and 8.04 µM and 8.19 µM.
For YPPGYPMQAYVDPSNPNAGKVLLPTP (peptide, UniProt Q9BYW2 2167-2192, looked up, source: synthetic peptide) [SETD2 2167–2192 peptide], the “fold decrease in binding against wild-type hnRNP L RRM2” value in experiment [12] amounted to 9 fold. For the same molecule, in experiment [13], the Kd came to 5.86 µM and the “stoichiometry N” value was determined as 0.93. The same molecule had a Kd in experiment [14] of 8.27 µM.

B1: SETD2 2180–2192 peptide (peptide)
peptide: SNPNAGKVLLPTP
notes: also called truncated peptide; source: synthetic peptide
In experiment [13], B1 returned a Kd of 11.6 µM.
With SNPNAGKVLLPTP (source: synthetic peptide) [SETD2^2180-2192 peptide], in experiment [5], the Kd was 11.4 µM and 11.8 µM and 11.5 µM; the “stoichiometry N” value is 1.01 and 1 and 0.96. Also, in [11], the Kd was 20.2 µM and 19.8 µM and 20.1 µM (2×); the “stoichiometry N” value was 0.82 and 0.83 and 0.89.
